Reference: PMC7721705, “The G protein coupled receptor CXCR4 designed by the QTY code becomes more hydrophilic and retains cell signaling activity” (Scientific Reports, 2020)

Biological target: the molecule itself
Experiment: dimer bands on SDS-PAGE (Western blot with rho1D4 antibody, silver stain); immunoaffinity-purified receptors in 0.01% or 0.2% detergent; Novex 10% Bis-Tris gels, samples kept at room temperature 10 min, not boiled

B1: CXCR4^QTY29 with C-terminal GSSG linker and rho1D4 tag (receptor, UniProt P61073 1-352, looked up)
chain: MEGISIYTSDNYTEEMGSGDYDSMKEPCFREENANYNKTFLPTIYSIIYQTGTVGNGLVILVMGYQKKLRSMTDKYRLHLSTADLQFVTTLPYWATDATANWYFGNFLCKAVHVIYTVNLYSSVLILAFISLDRYLAIVHATNSQRPRKLLAEKVVYVGVWTPAQLLTTPDYTFANVSEADDRYICDRFYPNDLWVVVFQFQHIMVGLILPGIVILSCYCIIISKLSHSKGHQKRKALKTTTTLIQAFFACWQPYYTGISIDSYILLEIIKQGCEFENTVHKWISTTEAQAFYHCCTNPTQYAYLGAKFKTSAQHALTSVSRGSSLKILSKGKRGGHSSVSTESESSSFHSS
notes: CXCR4, UniProt P61073, with 29 QTY replacements of lipid-facing transmembrane residues; also called QTY variant; source: E. coli cell-free reaction mix (pIVex2.3) with Brij-35; captured from crude supernatant (SPR); not shown: rho1D4 tag (after a GSSG linker), C-terminal, kept
binding result: binds
